Laboratory results reported in PMC3384305 (Nucleic Acids Research, 2012).
Where two headings read alike, the source gives them in different places.

Tests used:
NHTF (NHTF C-His) [1] = molecular target: T1, NHTF (NHTF C-His) (UniProt Q7DDD9 1-106); assay: EMSA
T1 sequence: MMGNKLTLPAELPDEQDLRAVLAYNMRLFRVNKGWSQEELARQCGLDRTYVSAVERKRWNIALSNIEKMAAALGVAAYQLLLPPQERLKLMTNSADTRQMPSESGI

NHTF (NHTF C-His) [2] = molecular target: T1, NHTF (NHTF C-His); assay: EMSA; remark: listed apart in the source
SEC [3] = molecular target: the molecule itself; assay: SEC
SEC [4] = molecular target: the molecule itself; assay: SEC; remark: listed apart in the source

B1: Specific (mutant) 25-mer (dsDNA)
DNA 1: TACCCGAAGTAAAATCCGTAACAGC
DNA 2: GCTGTTACGGATTTTACTTCGGGTA
binding result (NHTF (NHTF C-His) [1]): no binding

B2: NHTF 5'UTR fragment 1 (dsDNA)
DNA 1: TGTTTCCCAATCTGTCTTGATTTTATCTCTTTCCTC
DNA 2: GAGGAAAGAGATAAAATCAAGACAGATTGGGAAACA
binding result (NHTF (NHTF C-His) [1]): no binding

B3: Specific 25-mer (dsDNA)
DNA 1: TATGTGAAGTAAAATCCGTAACAGC
DNA 2: GCTGTTACGGATTTTACTTCACATA
binding result (NHTF (NHTF C-His) [1]): binds

B4: Nonspecific 25-mer (dsDNA)
DNA 1: ACCCCTTTTTTTTGGCTTTTATGTG
DNA 2: CACATAAAAGCCAAAAAAAAGGGGT
binding result (NHTF (NHTF C-His) [2]): no binding

B5: NHTF 5'UTR fragment 3 (dsDNA)
DNA 1: CTTTTTTTTGGCTTTTATGTGAAGTAAAATCCGTAACAGC
DNA 2: GCTGTTACGGATTTTACTTCACATAAAAGCCAAAAAAAAG
binding result (NHTF (NHTF C-His) [1]): binds

B6: NHTF 5'UTR fragment 4 (dsDNA)
DNA 1: AAATGCTTAACTTTAACCATTTATCTGGAAGCAA
DNA 2: TTGCTTCCAGATAAATGGTTAAAGTTAAGCATTT
binding result (NHTF (NHTF C-His) [1]): no binding

B7: DMP19 (NMB0541), without any tag (natural protein, N. meningitidis MC58, UniProt Q9K0P4 1-165, looked up)
chain: MTALTLPEDIRQQEPSALLYTLVSAYLEHTAQTGDESLSCLSDDQHTLTAFCYLDSQVEEGGFVQLIASGYGEYIFRNPLADSLRRWKIKAVPKVLDKAKALYEQHGKTIETLADGGADIPSLRKQFPEFEEWDGAYYEAAEQDLPLLAEHIQSNWETFAHIGQA
stoichiometry N (SEC [3]): 2

B8: NHTF 5'UTR fragment 2 (dsDNA)
DNA 1: TTGATGTGTGTGTGTTTGGGTGTGGCTGCCGCCACCC
DNA 2: GGGTGGCGGCAGCCACACCCAAACACACACACATCAA
binding result (NHTF (NHTF C-His) [1]): no binding

B9: C-terminal His6-tagged NHTF transcription factor (natural protein, N. meningitidis MC58)
chain: MMGNKLTLPAELPDEQDLRAVLAYNMRLFRVNKGWSQEELARQCGLDRTYVSAVERKRWNIALSNIEKMAAALGVAAYQLLLPPQERLKLMTNSADTRQMPSESGI
stoichiometry N (SEC [4]): 2
